Assay: yeast display, Sf9 membrane polyspecificity reagent, FACS + sequencing; frameworks hold sequencing errors
Method in brief: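 Nanobodies from a synthetic yeast display library (Saccharomyces cerevisiae BJ5465), induced 36–48 hours with galactose, were stained 1 hour at 4 °C with 10% biotinylated, detergent-solubilized Sf9 membrane reagent, enriched on streptavidin microbeads, then FACS-sorted. Anti-HA (expression) and streptavidin (reagent binding) fluorescence set low and high (top ~1%) gates. Polyreactivity labels come from the gate of origin. Genes were colony-PCR amplified, MiSeq 2 × 250 sequenced and filtered by CDR length.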

Sequence | polyreactivity (PSR sort gate)
QVQLVESGGGLVQAGGSLRISCAASGRTFDPYAMGWYRQAPGKERELVASISRGGSTYADSVKGRFTISRDNAKNTVYLQMNSLKPEDTAVYYCNTSLYTEGDAMDYWGQGTQVTVSS | low polyreactivity
QVQLVESGGGLVQAGGSLRISCAASGRTFPGNAMGWYRQAPGKERELVAAISWSGTRTYYADSVKGRFTISRDNAKNTVYLQMNSLKPEDTAVYYCNVVVKGAWDYYPYDYWGQGTQVTVSS | high polyreactivity
QVQLVESGGGLVQAGGSLRISCAASGRTFSGNAMGWYRQAPGKERELVAAISSGGSTNYADSVKGRFTISRDNAKNTVYLQMNSLKPEDTAVYFCARDAYLPRIADGDGRYELVDYWGHGTQVTVSS | low polyreactivity
QVQLVESGGGLVQAGGSLRISCAASGRTFTRYAMGWYRQAPGKERELVASITTGGRTYYADSVKGRFTISRDNAKNTVYLQMNSLKPEDTAVYYCNADRVYAWYRTYDYWGQGTQVTVSS | high polyreactivity
QVQLVESGGGLVQAGGSLRISCAASGRTFYGNAMGWYRQAPGKEREFFAAISASGGSTYYADSVKGRFTISRDNAKNTVYLQLNSLKPEDTSVYYCATDLGAFSVPYSPYDYWGLGTQVTVSS | low polyreactivity
QVQLVESGGGLVQAGGSLRISCAASGSIFDSKAMGWYRQAPGKERELVASFTSSGGSTYYADSVKGRFTISRDNAKNTVYLPRNSRKPEDTAVYYCAADSYKTIQDAYDYWGQGTQVTVSS | high polyreactivity
QVQLVESGGGLVQAGGSLRISCAASGSIFPEYAMGWYRQAPGKERELVAAITTSGGSTYYADSVKGRFTISRDNAKNTVYLQMNSLKPEDTAVYYCAVEYLVYLDYTYDYWGQGTQVTVSS | low polyreactivity
QVQLVESGGGLVQAGGSLRISCAASGSIFPRYAMGWYRQAPGKERELVAAISWRGGRTYYADSVKGRFTISRDNAKNTVYLQMNSLKPEDTAVYYCAARWRQRKSVRYGQQGYDYWGQGTQVTVSS | high polyreactivity
QVQLVESGGGLVQAGGSLRISCAASGSIFRPNAMGRYRQAPGKERELVAAINTSDDSTYYADSVKGRFTISRDNAKNTVYLQMNSLKQEDTAVYYCAAEYYAYPYGDYYDYWGQGTQVTVSS | low polyreactivity
QVQLVESGGGLVQAGGSLRISCAASGSIFTFYAMGRYRQAPGKERELVATITWLGGSTYADSVKGRFTISRDNAKNTVYLQMNSLKPEDTAVYYCAKYLGRQHEKDLGGMNYWGQGTQVTVSS | high polyreactivity
QVQLVESGGGLVQAGGSLRISCAASGSIFVHYAMGWYIPAPGKERELVAAITTSGGSTYYADSVKGRFTISRDNAKNTVYLQMNSLKPEDTAVYYCTARAVRYPFTGNYWGQGTQVTVSS | high polyreactivity
QVQLVESGGGLVQAGGSLRISCAASGSIFYRNVMGWYRQAPGKERELVAAISSSGGRTHYADSVKGRFTISRDNAKNTVYLQMNSLKPEDTAVYYCTALYAPQEYGRRFPNDYWGQGTQVTVSS | high polyreactivity
QVQLVESGGGLVQAGGSLRISCAASGSIFYWNTMGWYRQAPGKERELVATITRSGGSTRYADSVKGRCTISRDNAKITVYLQMNSLKPEDTAVYYCAAYRVYKRVVRGFDYWGQGTQVTVSS | low polyreactivity
QVQLVESGGGLVQAGGSLRISCAASGSISVYNAMGWYRQAPGKERELVAAISWSGGRTSYADSVKGRFTISRDNAKKTVYLQMNSLKPEDTEVYYCAADELTVLWDEDYWGQGTQVTVSS | low polyreactivity
QVQLVESGGGLVQAGGSLRISCAASGSTFAGNAMGWYRQAPGKERELVAAIDSSTGSTYYADSVKGRFTISRDNAKNTVYLQMNSLKPEDTAVYYCNKTSFLVKLDYWGQGTQVTVSS | low polyreactivity
QVQLVESGGGLVQAGGSLRISCAASGSTFDPYGMGWYRQAPGTERELVAAITSSGRTNYADSVKGRFTISRDNAKNTVYLQMNSLKPEDTAVYYCATRKERYFYRGYEYWGQGTQVTVSS | low polyreactivity
QVQLVESGGGLVQAGGSLRISCAASGSTFDVNAMGWYRQAPGKERELVAAISWNSGSTYYADSVKGRFTISRDNAKNTVYLQMNSLKPEDTAVYYCAATYGTGRRSKYGYWGQGTQVTVSS | high polyreactivity
QVQLVESGGGLVQAGGSLRISCAASGSTFSYYAMGWYRQAPGKERELVAAISQTGGTTYYADSVKGRFTISRDNAKNTVYLQMNSLTPEDTAVYYSNAARPGGHYWGQGTQVTVSS | low polyreactivity
QVQLVESGGGLVQAGGSLRISCAASGSTFYRNAMGWYRQAPGKEREFVAAISFRGGGTYADSVKGRFTISRDNAKNTVYLQMNSLKPEDTAVYYCAADHLSYRRRYEYWGQGTQVTVSS | low polyreactivity
QVQLVESGGGLVQAGGSLRISCAASGSTFYYYAMGWYRQAPGKEREFVAAITFRCGTTYYADSVKGRFTISRDYAKNTVYLQMNSLKREDTAVYYCDAKPPFRNYVRYDYWGQGTQVTVSS | high polyreactivity
QVQLVESGGGLVQAGGSLRISCAASGSTLFNYAMGWYRQAPGKERELVAAIDWGDGTTYYADSVKGRFTISRDNAKNTVYLQMNSLQPEDTAVYYCAAEEFYSPYDYWGQGTQVTVSS | high polyreactivity
QVQLVESGGGLVQAGGSLRISCAASGSTLYRNAMGWYRQAPGKEMELVAAISSSGGTTFYADSVKGRFTISRDNAKNTVYLQMNSLKPEDTAVYYCNRNARKLRTVHSSVFGLDYWGQGTQVTVSS | low polyreactivity

Reference: the nanobody polyreactivity screen of Harvey et al. (2022)
